Reference: publication PMC3161980
“And” between values parts separate entries of the source, which are not always exact repeats. Equal values may be shown once.

Biological target: plate-bound HA
Assay: ELISA

For “NKp30-Fc: long (canonical) ectodomain of NKp30 fused to the Fc portion of human IgG1 (from UniProt O14931 19-135) (Fc fusion)”, which fold stronger ELISA labeling than NKp46-Fc is on record?
Its fold stronger ELISA labeling than NKp46-Fc is 1.5 fold and 2 fold.
